Reference: patent publication US7084111 (UNIVERSITY OF FLORIDA RESEARCH FOUNDATION, dated 2006)
Values belong to the binder of their own block, whether it stands above or below them. Bridges are numbered along the chain shown (N, C = ends). Where no end group is shown, it is not given here. [ ]: non-standard residue; d: D form. Nle = CCCC[C@H](N)C(=O)O; Dap = NC[C@H](N)C(=O)O

Key:
Test in all cases: cell-based or functional assay
[1] = target: T1, mouse melanocortin-1 receptor (mouse, UniProt Q01727 1-315)
[2] = target: T2, mouse melanocortin-3 receptor (mouse, UniProt P33033 1-323)
[3] = target: mouse melanocortin-4 receptor (mouse, UniProt P56450 1-332)
[4] = target: mouse melanocortin-5 receptor (mouse, UniProt P41149 1-325)
[5] = target: T1, mouse melanocortin-1 receptor; remark: listed apart in the source
[6] = target: T2, mouse melanocortin-3 receptor; remark: listed apart in the source

Sequence of mouse melanocortin-5 receptor (P41149 whole entry): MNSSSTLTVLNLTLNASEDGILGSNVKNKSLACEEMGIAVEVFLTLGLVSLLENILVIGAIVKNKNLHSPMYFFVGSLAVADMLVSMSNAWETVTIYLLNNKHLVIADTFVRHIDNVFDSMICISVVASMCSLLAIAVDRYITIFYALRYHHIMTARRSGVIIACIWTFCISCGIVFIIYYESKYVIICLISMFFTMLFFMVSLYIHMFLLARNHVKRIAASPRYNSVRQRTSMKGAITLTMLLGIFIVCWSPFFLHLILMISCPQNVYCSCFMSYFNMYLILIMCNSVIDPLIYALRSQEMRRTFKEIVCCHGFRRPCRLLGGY
T2 sequence (P33033 whole entry): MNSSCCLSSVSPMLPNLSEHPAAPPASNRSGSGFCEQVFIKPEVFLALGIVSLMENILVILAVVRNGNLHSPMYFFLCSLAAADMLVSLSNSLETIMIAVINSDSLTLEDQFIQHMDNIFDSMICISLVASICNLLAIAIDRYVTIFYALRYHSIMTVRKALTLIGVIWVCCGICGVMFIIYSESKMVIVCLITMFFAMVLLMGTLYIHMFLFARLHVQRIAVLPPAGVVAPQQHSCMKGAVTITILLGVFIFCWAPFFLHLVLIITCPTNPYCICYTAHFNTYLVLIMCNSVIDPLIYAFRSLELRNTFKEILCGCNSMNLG
T1 sequence (Q01727 whole entry): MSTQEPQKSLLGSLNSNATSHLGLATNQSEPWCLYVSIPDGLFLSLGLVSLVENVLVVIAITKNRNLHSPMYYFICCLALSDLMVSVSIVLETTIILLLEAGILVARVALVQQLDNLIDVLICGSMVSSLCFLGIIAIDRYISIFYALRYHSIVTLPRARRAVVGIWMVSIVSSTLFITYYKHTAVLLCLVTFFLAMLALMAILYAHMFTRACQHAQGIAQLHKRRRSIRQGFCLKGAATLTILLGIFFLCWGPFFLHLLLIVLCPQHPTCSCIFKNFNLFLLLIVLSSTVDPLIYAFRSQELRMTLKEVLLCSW
Sequence of mouse melanocortin-4 receptor (P56450 whole entry): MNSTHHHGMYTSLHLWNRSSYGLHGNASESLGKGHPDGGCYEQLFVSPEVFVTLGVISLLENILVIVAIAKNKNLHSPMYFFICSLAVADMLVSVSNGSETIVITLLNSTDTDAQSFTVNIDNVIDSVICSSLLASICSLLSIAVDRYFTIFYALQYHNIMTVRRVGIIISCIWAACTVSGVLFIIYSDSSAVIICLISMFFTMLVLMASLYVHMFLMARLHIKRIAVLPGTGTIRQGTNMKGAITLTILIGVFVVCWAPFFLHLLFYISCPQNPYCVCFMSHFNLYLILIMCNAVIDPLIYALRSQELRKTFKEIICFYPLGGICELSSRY

B1: SEQ ID NO:11 (Ac-Ser-Tyr-Ser-Nle-Tyr-c[Asp-Arg-Phe-Phe-Asn-Ala-Phe-Dpr]-Tyr-Lys-Pro-Val) (peptide)
peptide: Ac-SYS[Nle]YDRFFNAF[Dap]YKPV-NH2
modifications: lactam 6-13
SMILES: CCCC[C@H](NC(=O)[C@H](CO)NC(=O)[C@H](Cc1ccc(O)cc1)NC(=O)[C@H](CO)NC(C)=O)C(=O)N[C@@H](Cc1ccc(O)cc1)C(=O)N[C@H]1CC(=O)NC[C@@H](C(=O)N[C@@H](Cc2ccc(O)cc2)C(=O)N[C@@H](CCCCN)C(=O)N2CCC[C@H]2C(=O)N[C@H](C(N)=O)C(C)C)NC(=O)[C@H](Cc2ccccc2)NC(=O)[C@H](C)NC(=O)[C@H](CC(N)=O)NC(=O)[C@H](Cc2ccccc2)NC(=O)[C@H](Cc2ccccc2)NC(=O)[C@H](CCCNC(=N)N)NC1=O
- EC50 (agonist) [1]: 1.96 µM
- pA2 (antagonist) [2]: 6.2
- pA2 (antagonist) [3]: 6.2
- EC50 (agonist) [4]: > 100 µM

B4: SEQ ID NO:20 (Ac-Nle-c[Asp-His-Arg-Phe-Phe-Lys]) (peptide)
peptide: Ac-[Nle]DHRFFK-NH2
modifications: lactam 2-7
SMILES: CCCC[C@H](NC(C)=O)C(=O)N[C@H]1CC(=O)NCCCC[C@@H](C(N)=O)NC(=O)[C@H](Cc2ccccc2)NC(=O)[C@H](Cc2ccccc2)NC(=O)[C@H](CCCNC(=N)N)NC(=O)[C@H](Cc2c[nH]cn2)NC1=O
- EC50 (agonist; Partial agonist) [1]: 38.3 µM
- EC50 (agonist) [2]: > 100 µM
- EC50 (agonist) [3]: > 100 µM
- EC50 (agonist) [4]: > 100 µM

B5: SEQ ID NO:8 (Tyr-c[Asp-His-Arg-Phe-Phe-Asn-Ala-Phe-Dpr]-Tyr) (peptide)
peptide: YDHRFFNAF[Dap]Y-NH2
modifications: lactam 2-10; N-terminus assumed
SMILES: C[C@@H]1NC(=O)[C@H](CC(N)=O)NC(=O)[C@H](Cc2ccccc2)NC(=O)[C@H](Cc2ccccc2)NC(=O)[C@H](CCCNC(=N)N)NC(=O)[C@H](Cc2c[nH]cn2)NC(=O)[C@@H](NC(=O)[C@@H](N)Cc2ccc(O)cc2)CC(=O)NC[C@@H](C(=O)N[C@@H](Cc2ccc(O)cc2)C(N)=O)NC(=O)[C@H](Cc2ccccc2)NC1=O
- fold decrease in agonist potency, fold change against SEQ ID NO:3 [5]: 8 fold
- EC50 (agonist) [1]: 13.3 µM
- EC50 (agonist) [3]: > 100 µM
- EC50 (agonist) [4]: 100 µM

B8: SEQ ID NO:19 (Ac-Nle-c[Asp-His-Ala-Ala-Ala-Lys]) (peptide)
peptide: Ac-[Nle]DHAAAK-NH2
modifications: lactam 2-7
SMILES: CCCC[C@H](NC(C)=O)C(=O)N[C@H]1CC(=O)NCCCC[C@@H](C(N)=O)NC(=O)[C@H](C)NC(=O)[C@H](C)NC(=O)[C@H](C)NC(=O)[C@H](Cc2c[nH]cn2)NC1=O
- EC50 (agonist) [1]: > 100 µM
- EC50 (agonist) [2]: > 100 µM
- EC50 (agonist) [3]: > 100 µM
- EC50 (agonist) [4]: > 100 µM

The remaining lines, values ahead:

- EC50 (agonist) [1]: 0.0599 µM
- EC50 (agonist) [2]: 0.48 µM
- EC50 (agonist) [3]: 0.93 µM
- EC50 (agonist) [4]: 0.327 µM
Binder: Ac-SYS[Nle]EHRFFGKPV-NH2 [SEQ ID NO:15 (Ac-Ser-Tyr-Ser-Nle-Glu-His-Arg-Phe-Phe-Gly-Lys-Pro-Val)]

- agonist potency, fold change against SEQ ID NO:15 [5]: 8 fold
- fold decrease in agonist potency, fold change against SEQ ID NO:15 [6]: 13 fold
- EC50 (agonist) [1]: 0.00728 µM
- EC50 (agonist) [2]: 6.21 µM
- EC50 (agonist) [4]: 0.45 µM
B2: SEQ ID NO:17 (Ac-Ser-Tyr-Ser-Nle-Glu-His-Arg-DPhe-Phe-Gly-Lys-Pro-Val-NH2) (peptide)
peptide: Ac-SYS[Nle]EHR[dF]FGKPV-NH2
SMILES: CCCC[C@H](NC(=O)[C@H](CO)NC(=O)[C@H](Cc1ccc(O)cc1)NC(=O)[C@H](CO)NC(C)=O)C(=O)N[C@@H](CCC(=O)O)C(=O)N[C@@H](Cc1c[nH]cn1)C(=O)N[C@@H](CCCNC(=N)N)C(=O)N[C@H](Cc1ccccc1)C(=O)N[C@@H](Cc1ccccc1)C(=O)NCC(=O)N[C@@H](CCCCN)C(=O)N1CCC[C@H]1C(=O)N[C@H](C(N)=O)C(C)C

- EC50 (agonist) [1]: > 100 µM
- EC50 (agonist) [2]: > 100 µM
- EC50 (agonist) [3]: > 100 µM
- EC50 (agonist) [4]: > 100 µM
B3: SEQ ID NO:12 (Ac-Ser-Tyr-Ser-Nle-Glu-His-Ala-Ala-Ala-Gly-Lys-Pro-Val) (peptide)
peptide: Ac-SYS[Nle]EHAAAGKPV-NH2
SMILES: CCCC[C@H](NC(=O)[C@H](CO)NC(=O)[C@H](Cc1ccc(O)cc1)NC(=O)[C@H](CO)NC(C)=O)C(=O)N[C@@H](CCC(=O)O)C(=O)N[C@@H](Cc1c[nH]cn1)C(=O)N[C@@H](C)C(=O)N[C@@H](C)C(=O)N[C@@H](C)C(=O)NCC(=O)N[C@@H](CCCCN)C(=O)N1CCC[C@H]1C(=O)N[C@H](C(N)=O)C(C)C

- EC50 (agonist; Partial agonist) [1]: 7.22 µM
- EC50 (agonist; Partial agonist) [2]: 20.5 µM
- EC50 (agonist) [3]: > 100 µM
- EC50 (agonist; Partial agonist) [4]: 24.4 µM
B6: SEQ ID NO:14 (Ac-Ser-Tyr-Ser-Nle-Glu-His-Phe-Phe-Arg-Gly-Lys-Pro-Val) (peptide)
peptide: Ac-SYS[Nle]EHFFRGKPV-NH2
SMILES: CCCC[C@H](NC(=O)[C@H](CO)NC(=O)[C@H](Cc1ccc(O)cc1)NC(=O)[C@H](CO)NC(C)=O)C(=O)N[C@@H](CCC(=O)O)C(=O)N[C@@H](Cc1c[nH]cn1)C(=O)N[C@@H](Cc1ccccc1)C(=O)N[C@@H](Cc1ccccc1)C(=O)N[C@@H](CCCNC(=N)N)C(=O)NCC(=O)N[C@@H](CCCCN)C(=O)N1CCC[C@H]1C(=O)N[C@H](C(N)=O)C(C)C

- EC50 (agonist; Partial agonist) [1]: 19.9 µM
- EC50 (agonist) [2]: > 100 µM
- EC50 (agonist) [3]: > 100 µM
- EC50 (agonist) [4]: > 100 µM
B7: SEQ ID NO:13 (Ac-Ser-Tyr-Ser-Nle-Glu-Phe-Phe-Arg-Gly-Lys-Pro-Val) (peptide)
peptide: Ac-SYS[Nle]EFFRGKPV-NH2
SMILES: CCCC[C@H](NC(=O)[C@H](CO)NC(=O)[C@H](Cc1ccc(O)cc1)NC(=O)[C@H](CO)NC(C)=O)C(=O)N[C@@H](CCC(=O)O)C(=O)N[C@@H](Cc1ccccc1)C(=O)N[C@@H](Cc1ccccc1)C(=O)N[C@@H](CCCNC(=N)N)C(=O)NCC(=O)N[C@@H](CCCCN)C(=O)N1CCC[C@H]1C(=O)N[C@H](C(N)=O)C(C)C
